Test results reported in publication PMC4103548, “Expression, and Molecular and Enzymatic Characterization of Cu-Containing Nitrite Reductase from a Marine Ammonia-Oxidizing Gammaproteobacterium, Nitrosococcus oceani” (Microbes and Environments, 2012).

Substrate: O=NO
Experiment: nitrite consumption, diazo-coupling colorimetric assay; Hanes-Woolf plot
Format: biochemical, Nitrosococcus oceani
Settings: reduced methylviologen (dithionite) as electron donor, pH 5.5 (optimal), 30 mM CPT buffer, 37°C, under mineral oil, kcat per subunit

B1: Cu-containing nitrite reductase (recombinant NirK) from Nitrosococcus oceani NS58 (Nitrosococcus oceani ATCC 19707) (protein)
chain: ADGEASSYIANIGTHANLKDLERVRQELVAPPHLPDHQQAYSGKPRIVEIEMVIEEKEVEIEPNVFVQAMTFNGTNPGPIIVVHEGDYVELTLKNLDTNMLLHNIDFHPATGALGGGALTKVAPGQQVTLRFKADKAGTYVYHCAPGGLMTPYHVVSGMYGAIMIFPKKGLRDQNGKKVTYDKAYYVGEQGWYIPKDKNGKYKRYANAIEPYGDTLEVMRGLVPTHVTYNGSKGALTGDNAMKAKVGDSVLFIHSQANEDSRIHLIGGHGDLVWPGGSFKNTPMVDKETWHVNGGESVAALYTFKQPGLYAYLNHNLIQAFMLGGAAHVKVDGEWNNDLMEQVVKPSPINAD
Km: 52 µM | kcat: 1600 s⁻¹
